Experimental data published in paper PMC9352680, “A comprehensive thermodynamic model for RNA binding by the Saccharomyces cerevisiae Pumilio protein PUF4”.
Substitutions are numbered along the chain they refer to. Numbers in names are those of the source.

Target: T1, PUF4 RNA-binding domain (Saccharomyces cerevisiae, UniProt P25339 537-888)
T1 sequence: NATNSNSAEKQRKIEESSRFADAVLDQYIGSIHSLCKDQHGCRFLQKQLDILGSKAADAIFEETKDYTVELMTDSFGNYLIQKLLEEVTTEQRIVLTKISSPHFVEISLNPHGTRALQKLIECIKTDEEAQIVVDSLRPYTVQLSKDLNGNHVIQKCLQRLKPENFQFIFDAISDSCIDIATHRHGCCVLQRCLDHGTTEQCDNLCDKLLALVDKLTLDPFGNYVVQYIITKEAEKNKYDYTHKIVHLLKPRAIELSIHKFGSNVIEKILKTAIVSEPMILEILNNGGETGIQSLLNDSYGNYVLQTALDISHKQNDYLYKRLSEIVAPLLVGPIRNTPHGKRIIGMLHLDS
Assay: Mg; RNA-MaP; 20 mM Na-HEPES pH 7.4, 30 mM KOAc, 0.75 mM MgCl2, 0.1% Tween-20, 5% glycerol, 0.1 mg/mL BSA, 2 mM DTT; 25 C; 0.0125-409.6 nM protein
Conditions: tags: N-His6-TEV cleaved; C-SNAP kept, Cy3B-labelled; label: tethered on chip by stalled RNA polymerase

B1: Id_ii_S2_P3E.3_K3.2_C3.2_[C-2T]_[T-1G]_H3.2_A3.1_F3.1_T3.2_[A10T] (ssRNA)
RNA: UUUGAUUAAUAUGAUAUCGUUCUUUCUUGUAUAUAUAUUUUCUUUCUCGAUAUCAUAUUAAUCUUU
Kd: 1.25 nM

B2: Id_ii_S2_P3E.3_K3.2_C3.2_[C-2T]_[T-1C]_H3.2_A3.1_F3.1_T3.2_[T9G]_[A10C] (ssRNA)
RNA: B1 RNA with G29C, U38G, U39C
Kd: 393 nM

B3: Ib_S1_P5E.1_K5.1_C5.1_H5.1_[A4T]_A5.1_F5.1_[T8C]_T5.1 (ssRNA)
RNA: UCUCUUUGUUUUACUAUCUCUU
Kd: 59.6 nM

B4: Id_ii_S2_P3E.3_K3.2_C3.2_[C-2T]_[T-1C]_H3.2_A3.1_F3.1_T3.2_[T9G]_[A10T] (ssRNA)
RNA: B1 RNA with G29C, U38G
Kd: 1030 nM

B5: Id_ii_S2_P3E.3_K3.2_C3.2_[C-2T]_[T-1C]_H3.2_A3.1_F3.1_T3.2_[T9C]_[A10G] (ssRNA)
RNA: B1 RNA with G29C, U38C, U39G
Kd: 536 nM

B6: Id_ii_S2_P3E.3_K3.2_C3.2_[C-2T]_[T-1C]_H3.2_A3.1_F3.1_T3.2_[T9C]_[A10C] (ssRNA)
RNA: B1 RNA with G29C, U38C, U39C
Kd: 228 nM

B7: Id_ii_S2_P3E.3_K3.2_C3.2_[C-2T]_[T-1C]_H3.2_A3.1_F3.1_T3.2_[T9C]_[A10T] (ssRNA)
RNA: B1 RNA with G29C, U38C
Kd: 88 nM

B8: Id_ii_S2_P3E.3_K3.2_C3.2_[C-2T]_[T-1C]_H3.2_A3.1_F3.1_T3.2_[T9C] (ssRNA)
RNA: B1 RNA with G29C, U38C, U39A
Kd: 175 nM

B9: Id_ii_S2_P3E.3_K3.2_C3.2_[C-2T]_[T-1C]_H3.2_A3.1_F3.1_T3.2_[T9A]_[A10T] (ssRNA)
RNA: B1 RNA with G29C, U38A
Kd: 147 nM

B10: Id_ii_S2_P3E.3_K3.2_C3.2_[C-2T]_[T-1C]_H3.2_A3.1_F3.1_T3.2_[A10T] (ssRNA)
RNA: B1 RNA with G29C
Kd: 68.1 nM

B11: Id_ii_S2_P3E.3_K3.2_C3.2_[C-2T]_[T-1A]_H3.2_A3.1_F3.1_T3.2_[T9C]_[A10C] (ssRNA)
RNA: B1 RNA with G29A, U38C, U39C
Kd: 63.8 nM

B12: Id_ii_S2_P3E.3_K3.2_C3.2_[C-2T]_[T-1A]_H3.2_A3.1_F3.1_T3.2_[T9C]_[A10T] (ssRNA)
RNA: B1 RNA with G29A, U38C
Kd: 45.6 nM

B13: Id_ii_S2_P3E.3_K3.2_C3.2_[C-2T]_[T-1A]_H3.2_A3.1_F3.1_T3.2_[T9A]_[A10C] (ssRNA)
RNA: B1 RNA with G29A, U38A, U39C
Kd: 203 nM

B14: Ib_S1_P5E.1_K5.1_C5.1_H5.1_[A4G]_A5.1_F5.1_[T8A]_T5.1 (ssRNA)
RNA: UCUCUUUGUGUUAAUAUCUCUU
Kd: 134 nM

B15: Id_ii_S2_P3E.3_K3.2_C3.2_[C-2T]_[T-1A]_H3.2_A3.1_F3.1_T3.2_[T9A]_[A10T] (ssRNA)
RNA: B1 RNA with G29A, U38A
Kd: 247 nM

B16: Id_ii_S2_P3E.3_K3.2_C3.2_[C-2T]_[T-1A]_H3.2_A3.1_F3.1_T3.2_[T9A] (ssRNA)
RNA: B1 RNA with G29A, U38A, U39A
Kd: 498 nM

B17: Id_ii_S2_P3E.3_K3.2_C3.2_[C-2T]_[T-1A]_H3.2_A3.1_F3.1_T3.2_[A10G] (ssRNA)
RNA: B1 RNA with G29A, U39G
Kd: 554 nM

B18: Id_ii_S2_P3E.3_K3.2_C3.2_[C-2T]_[T-1A]_H3.2_A3.1_F3.1_T3.2_[A10C] (ssRNA)
RNA: B1 RNA with G29A, U39C
Kd: 93.1 nM

B19: Id_ii_S2_P3E.3_K3.2_C3.2_[C-2T]_[T-1A]_H3.2_A3.1_F3.1_T3.2_[A10T] (ssRNA)
RNA: B1 RNA with G29A
Kd: 83.4 nM

B20: Id_ii_S2_P3E.3_K3.2_C3.2_[C-2T]_H3.2_A3.1_F3.1_T3.2_[T9G]_[A10C] (ssRNA)
RNA: B1 RNA with G29U, U38G, U39C
Kd: 277 nM

B21: Id_ii_S2_P3E.3_K3.2_C3.2_[C-2T]_H3.2_A3.1_F3.1_T3.2_[T9G]_[A10T] (ssRNA)
RNA: B1 RNA with G29U, U38G
Kd: 253 nM

B22: Id_ii_S2_P3E.3_K3.2_C3.2_[C-2T]_H3.2_A3.1_F3.1_T3.2_[T9C]_[A10C] (ssRNA)
RNA: B1 RNA with G29U, U38C, U39C
Kd: 191 nM

B23: Id_ii_S2_P3E.3_K3.2_C3.2_[C-2T]_H3.2_A3.1_F3.1_T3.2_[T9A]_[A10C] (ssRNA)
RNA: B1 RNA with G29U, U38A, U39C
Kd: 262 nM

B24: Id_ii_S2_P3E.3_K3.2_C3.2_[C-2T]_H3.2_A3.1_F3.1_T3.2_[T9A]_[A10T] (ssRNA)
RNA: B1 RNA with G29U, U38A
Kd: 439 nM

B25: Ia_S1_P5E.1_K5.1_C5.1_H5.1_A5.1_F5.1_[A10G]_T5.1 (ssRNA)
RNA: UCUCUUUGUAUUAUUGUCUCUU
Kd: 14.8 nM

B26: Ib_S1_P5E.1_K5.1_C5.1_H5.1_[A4T]_A5.1_F5.1_[T8A]_T5.1 (ssRNA)
RNA: UCUCUUUGUUUUAAUAUCUCUU
Kd: 73.4 nM

B27: Id_ii_S2_P3E.3_K3.2_C3.2_[C-2T]_H3.2_A3.1_F3.1_T3.2_[T9A] (ssRNA)
RNA: B1 RNA with G29U, U38A, U39A
Kd: 925 nM

B28: Id_ii_S2_P3E.3_K3.2_C3.2_[C-2T]_H3.2_A3.1_F3.1_T3.2_[A10C] (ssRNA)
RNA: B1 RNA with G29U, U39C
Kd: 130 nM

B29: Id_ii_S2_P3E.3_K3.2_C3.2_[C-2T]_H3.2_A3.1_F3.1_T3.2_[A10T] (ssRNA)
RNA: B1 RNA with G29U
Kd: 78.5 nM
